# Target: human long isoform dopamine D2 (D2DA) receptor (human), P14416
# Assay: cell-based or functional assay
# Chain of human long isoform dopamine D2 (D2DA) receptor (human), P14416 (P14416 whole entry, canonical isoform): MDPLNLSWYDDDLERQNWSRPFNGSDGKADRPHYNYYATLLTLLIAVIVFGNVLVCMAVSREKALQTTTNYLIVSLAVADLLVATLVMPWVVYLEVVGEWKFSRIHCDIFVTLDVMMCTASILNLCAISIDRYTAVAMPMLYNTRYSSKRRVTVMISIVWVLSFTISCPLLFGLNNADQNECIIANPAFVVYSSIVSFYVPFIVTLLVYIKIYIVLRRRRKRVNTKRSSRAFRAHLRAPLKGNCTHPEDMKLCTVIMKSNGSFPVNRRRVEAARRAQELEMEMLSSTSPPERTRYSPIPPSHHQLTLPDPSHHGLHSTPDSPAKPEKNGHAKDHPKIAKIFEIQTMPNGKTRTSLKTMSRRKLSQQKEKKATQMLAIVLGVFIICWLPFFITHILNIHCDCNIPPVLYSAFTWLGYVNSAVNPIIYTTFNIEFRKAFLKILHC
"EAR response to dopamine, LtK system, paired one-tailed t-test","dopamine-induced EAR, CHO cells, paired one-tailed t-test",Binder,also measured
25.5 t statistic,1.54 t statistic,ERNRKPLRPKNKYLI […],–
–,–,H-SHQRWEYKGVNCIVY-OH,"potentiation of the dopamine-induced increment in total milli-pH units (EAR), CHO system, paired one-tailed t-test: 28.1 t statistic; potentiation of the dopamine-induced increment in total milli-pH units (EAR), LtK system, paired one-tailed t-test: 13.3 t statistic"
–,–,H-THQAFHYCNKQCLVI-OH (cysteine pairing not given here),"potentiation of the dopamine response (EAR), CHO system, paired one-tailed t-test: 1.31 t statistic; potentiation of the dopamine response (EAR), LtK system, paired one-tailed t-test: 0.62 t statistic"
69.8 t statistic,1.28 t statistic,H-ERNRKPYRPKNKYLL-OH,–

# Source: patent US20050119454A1
